# Source: publication PMC3376133, “Glutamine versus Ammonia Utilization in the NAD Synthetase Family” (PLoS ONE, 2012)
# B1: mj_NADS (Methanocaldococcus jannaschii DSM 2661) (protein)
# chain: MLWGESMEEIVNKITKFIREKVEEANANGVVVGLSGGIDSSVTAYLCVKALGKDKVLGLIMPEKNTNPKDVEHAKMVAENLGIKYIISDITDILKAFGAGGYVPTREFDKIADGNLKARIRMCILYYFANKYNLLVAGTSNKSEIYVGYGTKHGDIACDIRPIGNLFKTEVKKLAKYIGVPKEIIEKPPSAGLWEGQTDEEELDIKYETLDTILKLYEKGKTPEEIHKETNIPLETINYVFDLIKKNEHKRTLPPTPEI
# notes: full-length single-domain NADS, N-terminal His6-tag, pET-derived vector, E. coli BL21/DE3
# Legend:
# tt_NADS S-subunit = target: T1, tt_NADS S-subunit (Thermus thermophilus, UniProt Q72HE9); experiment: coupled alcohol dehydrogenase assay, NADH at […] nm; assay type: biochemical; settings: ammonia as amide donor, ATP; constants possibly in Figure 3C
# T1 construct: gene TT_C1538; S-subunit expressed alone in E. coli BL21/DE3, N-terminal His6-tag
# T1 sequence (Q72HE9 1-281): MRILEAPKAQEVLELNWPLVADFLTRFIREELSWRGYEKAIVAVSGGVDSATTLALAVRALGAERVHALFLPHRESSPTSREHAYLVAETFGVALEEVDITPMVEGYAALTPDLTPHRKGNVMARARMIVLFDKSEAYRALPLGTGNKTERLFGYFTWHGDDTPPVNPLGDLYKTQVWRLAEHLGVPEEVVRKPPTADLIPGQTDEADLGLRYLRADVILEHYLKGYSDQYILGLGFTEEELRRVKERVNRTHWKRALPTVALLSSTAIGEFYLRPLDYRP
# [1] = substrate: Nc1ncnc2c1ncn2[C@@H]1O[C@H](COP(=O)(O)OP(=O)([O-])OC[C@H]2O[C@@H]([n+]3cccc(C(=O)O)c3)[C@H](O)[C@@H]2O)[C@@H](O)[C@H]1O; experiment: steady-state kinetics of NAD synthetase activity; assay type: biochemical, Methanocaldococcus jannaschii; settings: ammonia 4 mM, saturating ATP (2 mM), 10 mM MgCl2, pH 7.5
Molecule,"coupled alcohol dehydrogenase assay, NADH at 340 nm (tt_NADS S-subunit)",Km [1] [µM],kcat [1] [s⁻¹]
Nc1ncnc2c1ncn2[C@@H]1O[C@H](COP(=O)(O)OP(=O)([O-])OC[C@H]2O[C@@H]([n+]3cccc(C(=O)O)c3)[C@H](O)[C@@H]2O)[C@@H](O)[C@H]1O [NaAD],the S-subunit alone ... had a comparable NADS activity only with ammonia,–,–
B1,–,130 ± 20,0.20 ± 0.01
